The source of these data is article PMC3265493, “Inhibitory Potential of Prodomain of Plasmodium falciparum Protease Serine Repeat Antigen 5 for Asexual Blood Stages of Parasite” (PLoS ONE, 2012).

The target of the experiment is T1, SERA5 catalytic domain (SERA5 C) (Plasmodium falciparum 3D7, UniProt Q9TY95 578-828).
T1 construct: Plasmodium falciparum 3D7 serine repeat antigen 5 (SERA5), PlasmoDB PFB0340c, 251-residue enzyme (catalytic) domain E578 to N828, amplified from cDNA; Cloned in pProExHTb between BamHI and XhoI with N-terminal hexahistidine tag; no tag removal is described; also called enzyme domain
T1 sequence: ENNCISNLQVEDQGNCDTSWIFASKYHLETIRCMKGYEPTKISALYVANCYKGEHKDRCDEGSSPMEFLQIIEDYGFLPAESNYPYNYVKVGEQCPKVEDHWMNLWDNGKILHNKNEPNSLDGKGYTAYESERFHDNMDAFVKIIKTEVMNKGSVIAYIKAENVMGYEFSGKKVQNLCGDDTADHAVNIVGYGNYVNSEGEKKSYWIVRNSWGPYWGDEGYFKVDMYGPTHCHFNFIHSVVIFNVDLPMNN
As to the kind of experiment: CD spectroscopy; CD spectra of SERA5 C (5 uM) in PBS pH 7.4 alone and with 5 uM peptide (1:1 molar ratio), 25 C. Conditions: both partners purified.

B1: heptapeptide DNSDNMF (D560 to F566 of SERA5 sequence) (peptide)
peptide: DNSDNMF
notes: C-terminal region of the prodomain of Plasmodium falciparum serine repeat antigen 5 (SERA5), residues D560 to F566; Made on Rink amide resin, so the C-terminus is probably an amide; also called the heptapeptide; the peptide; source: synthetic peptide (solid phase, Fmoc chemistry, Rink Amide MHBA resin; RP-HPLC purified)
For the molecule B1, the binding result is reported as “binds”.
